# Numbering of substitutions follows the chain as printed.
# B1: 2842-B01 HC3/LC1 (antibody)
# heavy: MEVQLVESGGGLVQPGGSLRLSCAASGFSISSYDMSWVRQAPGKGLEWIGIIGSNGRTYYPDSVKGRFTISRDNSKNTVTLQMNSLRAEDTAVYYCARGLYDGTGNIWGQGTLVTVSSASTKGPSVFPLAPSSKSTSGGTAALGCLVKDYFPEPVTVSWNSGALTSGVHTFPAVLQSSGLSLSSVVTVPSSSLGTQTYICNVNHKPSNTKVDKKVEPKSCDKTHTCPPCPAPELLGGPSVFLFPPKPKDTLMISRTPEVTCVVVDVSHEDPEVKFNWYVDGVEVHNAKTKPREEQYNSTYRVVSVLTVLHQDWLNGKEYKCKVSNKALPAPIEKTISKAKGQPREPQVYTLPPSREEMTKNQVSLTCLVKGFYPSDIAVEWESNGQPENNYKTTPPVLDSDGSFLYSKLTVDKSRWQQGNVFSCSVMHEALHNHYTQKSLSLSPGK
# light: MDLQMTQSPSSLSASVGDRVTITCRASQSVYGNNWLSWYQQKPGKAPKLLIYGASKLASGVPSRFSGSGSGTQFTLTISSLQPEDFATYYCQGTYYSGDWYFAFGQGTKVEIKRTVAAPSVFIFPPSDEQLKSGTASVVCLLNNFYPREAKVQWKVDNALQSGNSQESVTEQDSKDSTYSLSSTLTLSKADYEKHKVYACEVTHQGLSSPVTKSFNRGEC
# modifications: conjugated to LP1 at Y180/F404
# B2: 2842-B01 HC1/LC1 (antibody, V domains shown)
# VH: MQVQVVESGGGLVKPGGSLRLSCAASGFSISSYDMSWIRQAPGKGLEWIGIIGSNGRTYYADSVKGRFTISRNTNENTVYLQMNSLRAEDTAVYYCARGLYDGTGNIWGQGTLVTVSS
# VL: MDLQMTQSPSSLSASVGDRVTITCRASQSVYGNNWLSWYQQKPGKAPKLLIYGASKLASGVPSRFSGSGSGTQFTLTISSLQPEDFATYYCQGTYYSGDWYFAFGQGTKVEIK
# B3: SRP2901-F01 (antibody, V domains shown)
# VH: B2 VH
# VL: B2 VL with L3I, R25Q, Q73D, Q106G
# B4: SRP2901-D03 (antibody, V domains shown)
# VH: B2 VH with Q2E, V5L, K14Q, I38V, A61P, N73D, T74N, N75S, E76K, Y80T
# VL: B2 VL
# B5: SRP2901-E03 (antibody, V domains shown)
# VH: B2 VH with Q2E, V5L, K14Q, I38V, A61P, N73D, T74N, N75S, E76K, Y80T
# VL: MELVMTQSPPTLSLSPGERVTLSCRASQSVYGNNWLSWYQQKPGQAPRLLIYGASKLATSIPARFSGSGSGTQFTLTISSLQPEDFAVYYCQGTYYSGDWYFAFGQGTKVEIK
# B6: 2842-G04 HC2/LC2 (antibody)
# heavy: MQVQVQESGPGLVKPPGTLSLTCAVSGFSLSYYGVSWVRQPPGKGLEWIGTIDSSGRTYYNPSLKSRVTISNDNAPNTVSLKLSSVTAADTAVYYCARDFYGWNSGALDIWGQGTLVTVSSASTKGPSVFPLAPSSKSTSGGTAALGCLVKDYFPEPVTVSWNSGALTSGVHTFPAVLQSSGLSLSSVVTVPSSSLGTQTYICNVNHKPSNTKVDKKVEPKSCDKTHTCPPCPAPELLGGPSVFLFPPKPKDTLMISRTPEVTCVVVDVSHEDPEVKFNWYVDGVEVHNAKTKPREEQYNSTYRVVSVLTVLHQDWLNGKEYKCKVSNKALPAPIEKTISKAKGQPREPQVYTLPPSREEMTKNQVSLTCLVKGFYPSDIAVEWESNGQPENNYKTTPPVLDSDGSFLYSKLTVDKSRWQQGNVFSCSVMHEALHNHYTQKSLSLSPGK
# light: MDLQLTQSPSTLSASVGDRVTITCRASQSVYSNKYLSWYQQKPGKAPKLLIYKASTLASGVPSRFSGSGSGTEFTLTISSLQPDDFATYYCAAAYSDDSDTAFGQGTKVEIKRTVAAPSVFIFPPSDEQLKSGTASVVCLLNNFYPREAKVQWKVDNALQSGNSQESVTEQDSKDSTYSLSSTLTLSKADYEKHKVYACEVTHQGLSSPVTKSFNRGEC
# modifications: conjugated to LP1 at Y180/F404
# B7: SRP2901-B05 (antibody, V domains shown)
# VH: MQVQVQESGPGLVKPPGTLSLTCAVSGFSLSYYGVSWVRQPPGKGLEWIGTIDSSGRTYYNPSLKSRVTISNDNAPNTVSLKLSSVTAADTAVYYCARDFYGWNSGALDIWGQGTLVTVSS
# VL: MDLQLTQSPSTLSASVGDRVTITCRASQSVYSNKYLSWYQQKPGKAPKLLIYKASTLASGVPSRFSGSGSGTEFTLTISSLQPDDFATYYCAAAYSDDSDTAFGQGTKVEIK
# What was measured:
# human TF = target: T1, human TF (Homo sapiens, UniProt P13726); assay: Biacore off-rate and kinetic binding, human TF; details: Table 11, humanized rabbit antibodies; 100 nM antigen, 25° C.
# T1 construct: purchased Lake Pharma
# T1 sequence (P13726 33-295): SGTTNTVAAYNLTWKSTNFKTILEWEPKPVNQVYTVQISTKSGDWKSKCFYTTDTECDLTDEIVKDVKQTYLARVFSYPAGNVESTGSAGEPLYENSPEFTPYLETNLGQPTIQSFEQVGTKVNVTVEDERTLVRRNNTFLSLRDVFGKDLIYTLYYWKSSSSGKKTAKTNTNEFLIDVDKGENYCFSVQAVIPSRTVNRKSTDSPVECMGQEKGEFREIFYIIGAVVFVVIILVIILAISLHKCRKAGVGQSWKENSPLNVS
# Procedure: (§1) Anti-Fc polyclonal antibodies were immobilized onto a CM4 chip (Cytiva #BR100534) using amine coupling chemistry (Human Antibody Capture Kit, Cytiva #BR100839). The immobilization steps were carried out at a flow rate of 25 μL/min in 1×HBS-EP+buffer (Cytiva #BR100669). The sensor surfaces were activated for 7 min with a mixture of N-hydroxysuccinimide (NHS, 0.05 M) and 1-ethyl-3-(3-dimethylaminopropyl)-carbodiimide (EDC, 0.2 M). The anti-Fc polyclonal antibodies were injected over all 4 flow cells at a concentration of 25 μg/mL in 10 mM sodium acetate, pH 4.5, for 7 min. Ethanolamine (1 M, pH 8.5) was injected for 7 min to block any remaining activated groups. Approximately 6,000 response units (RU) of capture antibody was immobilized on each flow cell.
# (§2) Off-rate and kinetic binding experiments were performed at 25° C. using 1×HBS-EP+buffer. Antibodies were injected over the anti-Fc surface at a concentration of 3 μg/mL for 12 seconds at a flow rate of 10 μL/min on flow cells 2, 3 and 4, followed by a buffer wash for 30 seconds at the same flow rate. Single point off-rate analysis was carried out using an antigen concentration of 100 nM. […] After capturing ligand (antibody) on the anti-Fc surface, the analyte (human TF, Lake Pharma; cynomolgus TF, Sino Bio #90885-C08H; mouse TF, R&D Systems #3178-PA) was bound for 180 seconds, followed by a 420 second dissociation phase at a flow rate of 50 μL/min. Between each ligand capture and analyte binding cycle, regeneration was carried out using 2 injections of 10 mM glycine pH 2.0 for 30 seconds at 30 μL/min, followed by a 30 second buffer wash step.
# (§3) The data were fit with the Biacore T200 Evaluation software, using a 1:1 Langmuir binding model. KD (affinity, nM) was determined as a ratio of the kinetic rate constants calculated from the fits of the association and dissociation phases.
# (§4) Anti-Fc polyclonal antibodies were immobilized onto a CM4 chip (Cytiva #BR100534) using amine coupling chemistry (Human Antibody Capture Kit, Cytiva #BR100839). The immobilization steps were carried out at a flow rate of 25 μL/min in 1×HBS-EP+buffer (Cytiva #BR100669). The sensor surfaces were activated for 7 min with a mixture of NHS (0.05 M) and EDC (0.2 M). The Anti-Fc antibodies were injected over all 4 flow cells at a concentration of 25 ug/ml in 10 mM sodium acetate, pH 4.5, for 7 min. Ethanolamine (1 M, pH 8.5) was injected for 7 min to block any remaining activated groups. Approximately 6,000 response units (RU) of capture antibody was immobilized on each flow cell. Off-rate and kinetic binding experiments were performed at 25° C. using 1×HBS-EP+buffer. Antibodies or ADCs were injected over the anti-Fc surface at a concentration of 3 μg/mL for 12 seconds at a flow rate of 10 μL/min on flow cells 2, 3 and 4, followed by a buffer wash for 30 seconds at the same flow rate. […] After capturing ligand (antibody) on the anti-Fc surface, the analyte (human TF, Lake Pharma; cynomolgus TF, Sino Bio #90885-C08H; mouse TF, R&D Systems #3178-PA) was bound for 180 seconds, followed by a 420 second dissociation phase at a flow rate of 50 μL/min. Between each ligand capture and analyte binding cycle, regeneration was carried out using 2 injections of 10 mM Glycine pH 2.0 for 30 seconds at 30 μL/min, followed by a 30 second buffer wash step. The data was fit with the Biacore T200 Evaluation software, using a 1-1 Langmuir binding model. KD (affinity, nM) was determined as a ratio of the kinetic rate constants calculated from the fits of the association and dissociation phases.
# cynomolgus TF = assay: Biacore off-rate and kinetic binding, cynomolgus TF; details: Table 11, humanized rabbit antibodies; 100 nM antigen, 25° C.
# cynomolgus TF, sequence (as listed by the source): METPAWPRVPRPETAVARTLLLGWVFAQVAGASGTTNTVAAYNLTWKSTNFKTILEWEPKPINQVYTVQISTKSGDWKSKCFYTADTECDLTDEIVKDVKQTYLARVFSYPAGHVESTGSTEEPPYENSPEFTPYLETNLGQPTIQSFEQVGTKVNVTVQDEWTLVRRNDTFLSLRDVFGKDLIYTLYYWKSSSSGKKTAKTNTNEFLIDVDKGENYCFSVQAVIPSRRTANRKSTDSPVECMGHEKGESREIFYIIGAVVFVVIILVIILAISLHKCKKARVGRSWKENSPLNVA
# Procedure: as §1, §2, §3, §4
# [1] = DSF protein thermal shift assay (melting temperatures TM1/TM2); format: physicochemical; details: Table 8, humanized rabbit antibodies; TM2 = Fab domain
# Procedure: (§5) A protein thermal shift assay was carried out by mixing the protein to be assayed with an environmentally sensitive dye (SYPRO Orange, Life Technologies #S-6650) and monitoring the fluorescence of the mixture in real time as it underwent controlled thermal denaturation. Protein solutions between 0.2-2 mg/mL were mixed at a 1:1 volumetric ratio with a solution of SYPRO Orange solution diluted 250-fold in PBS+10% sucrose. 10 μL aliquots of the protein-dye mixture were dispensed in quadruplicate in a 384-well microplate (Bio-Rad #MSP-3852). The plate was sealed with an optically clear sealing film (Bio-Rad #MSB-1001) and placed in a 384-well plate real-time thermocycler (Bio-Rad CFX384 Real Time System). The protein-dye mixture was heated from 25° C. to 95° C., at increments of 0.2° C. per cycle, allowing 3 seconds of equilibration at each temperature before taking a fluorescence measurement. At the end of the experiment, the transition melting temperatures (TM1 and TM2) were determined using the Bio-Rad CFX manager software. TM1 represents the melting temperature of the Fc domain. TM2 represents the melting temperature of the Fab domain.
# as §5, with “solutions at 1” for “solutions between 0.2-2”, “a 1-1” for “a 1:1”, “sucrose. 5” for “sucrose. 10”
# BxPC3 cells = assay: Secondary ADC cell killing assay (antibody + anti-human Fc nanobody conjugated to SC236) on BxPC3; format: cell-based; details: Table 17; nanobody-SC236 20 nM, 120 hrs
# Procedure: The internalization ability of the lead antibodies was evaluated by an ADC cell killing assay on Tissue Factor positive BxPC3 cells. A total of 625 cells in a volume of 25 μL were seeded in each well of a 384-well flat bottom white polystyrene plate. Lead antibodies were formulated at 4-fold starting concentration in the cell culture medium and filtered through MultiScreenHTS 96-Well Filter Plates (Millipore; Billerica, Massachusetts). 12.5 μL of antibody was added into each treatment well, and 12.5 μL of anti-human Fc nanobody conjugated to SC236 was then added into each well at a fixed final concentration of 20 nM. Assay plates were cultured at 37° C. in a CO2 incubator for 120 hrs before assay. For cell viability measurement, 30 μL of Cell Titer-Glo® reagent (Promega Corp. Madison, WI) was added into each well, and plates were processed as per product instructions. Relative luminescence was measured on an ENVISION® plate reader (Perkin-Elmer; Waltham, MA). Relative luminescence readings were converted to percent viability using untreated cells as controls. Data was fitted with non-linear regression analysis, using a log (inhibitor) vs. response-variable slope, 4 parameter fit with GraphPad Prism (GraphPad v 5.0, Software; San Diego, California).
Molecule,Biacore human TF single point off-rate kinetics kd (human TF) [s⁻¹],Biacore cynomolgus TF single point off-rate kinetics kd (cynomolgus TF) [s⁻¹],DSF TM2 (° C.) [1] [°C],BxPC3 Cell Killing Span (%) (BxPC3 cells),EC50 (BxPC3 cells) [nM]
B1,0.000416,0.00187,86.5,,
B2,0.000727,0.00352,87.3,,
B3,,,,87,0.364
B4,,,,77.4,0.184
B5,,,,92.4,0.166
B6,0.000736,0.0017,80.2,,
B7,,,,84,0.059
